Laboratory results as given in PMC5165203, “The Cellular DNA Helicase ChlR1 Regulates Chromatin and Nuclear Matrix Attachment of the Human Papillomavirus 16 E2 Protein and High-Copy-Number Viral Genome Establishment” (Journal of Virology, 2016).

T1: His-ChlR1 63-214 (human, UniProt Q96FC9 63-214)
T1 construct: DNA helicase ChlR1, human, amino acids 63 to 214, cloned from pCMV-FLAG-ChlR1 into pHIS-TEV; Vector pHIS-TEV (NcoI/EcoRI); held on nickel resin by the hexahistidine tag in the pull-down; also called ChlR1 63-214 peptide
T1 sequence (looked up): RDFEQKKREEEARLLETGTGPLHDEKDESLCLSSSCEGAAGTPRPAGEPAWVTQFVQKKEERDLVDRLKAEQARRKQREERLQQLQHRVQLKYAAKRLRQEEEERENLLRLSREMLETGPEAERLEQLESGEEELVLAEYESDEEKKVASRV

B1: HPV16 E2 D124A mutant (natural protein)
chain: METLCQRLNVCQDKILTHYENDSTDLRDHIDYWKHMRLECAIYYKAREMGFKHINHQVVPTLAVSKNKALQAIELQLTLETIYNSQYSNEKWTLQDVSLEVYLTAPTGCIKKHGYTVEVQFDGAICNTMHYTNWTHIYICEEASVTVVEGQVDYYGLYYVHEGIRTYFVQFKDDAEKYSKNKVWEVHAGGQVILCPTSVFSSNEVSSPEIIRQHLANHPAATHTKAVALGTEETQTTIQRPRSEPDTGNPCHTTKLLHRDSVDSAPILTAFNSSHKGRINCNSNTTPIVHLKGDANTLKCLRYRFKKHCTLYTAVSSTWHWTGHNVKHKSAIVTLTYDSEWQRDQFLSQVKIPKTITVSTGFMSI
notes: E2 protein of human papillomavirus 16, from pCMV-16E2 by site-directed mutagenesis; source: C33a cells, transfected (mutated pCMV-16E2), in lysate
B2: HPV16 E2 Y131A mutant (natural protein)
chain: METLCQRLNVCQDKILTHYENDSTDLRDHIDYWKHMRLECAIYYKAREMGFKHINHQVVPTLAVSKNKALQAIELQLTLETIYNSQYSNEKWTLQDVSLEVYLTAPTGCIKKHGYTVEVQFDGDICNTMHATNWTHIYICEEASVTVVEGQVDYYGLYYVHEGIRTYFVQFKDDAEKYSKNKVWEVHAGGQVILCPTSVFSSNEVSSPEIIRQHLANHPAATHTKAVALGTEETQTTIQRPRSEPDTGNPCHTTKLLHRDSVDSAPILTAFNSSHKGRINCNSNTTPIVHLKGDANTLKCLRYRFKKHCTLYTAVSSTWHWTGHNVKHKSAIVTLTYDSEWQRDQFLSQVKIPKTITVSTGFMSI
notes: as for B1
B3: HPV16 E2 H130R mutant (natural protein)
chain: METLCQRLNVCQDKILTHYENDSTDLRDHIDYWKHMRLECAIYYKAREMGFKHINHQVVPTLAVSKNKALQAIELQLTLETIYNSQYSNEKWTLQDVSLEVYLTAPTGCIKKHGYTVEVQFDGDICNTMRYTNWTHIYICEEASVTVVEGQVDYYGLYYVHEGIRTYFVQFKDDAEKYSKNKVWEVHAGGQVILCPTSVFSSNEVSSPEIIRQHLANHPAATHTKAVALGTEETQTTIQRPRSEPDTGNPCHTTKLLHRDSVDSAPILTAFNSSHKGRINCNSNTTPIVHLKGDANTLKCLRYRFKKHCTLYTAVSSTWHWTGHNVKHKSAIVTLTYDSEWQRDQFLSQVKIPKTITVSTGFMSI
notes: as for B1
B4: HPV16 E2 K177A mutant (natural protein)
chain: METLCQRLNVCQDKILTHYENDSTDLRDHIDYWKHMRLECAIYYKAREMGFKHINHQVVPTLAVSKNKALQAIELQLTLETIYNSQYSNEKWTLQDVSLEVYLTAPTGCIKKHGYTVEVQFDGDICNTMHYTNWTHIYICEEASVTVVEGQVDYYGLYYVHEGIRTYFVQFKDDAEAYSKNKVWEVHAGGQVILCPTSVFSSNEVSSPEIIRQHLANHPAATHTKAVALGTEETQTTIQRPRSEPDTGNPCHTTKLLHRDSVDSAPILTAFNSSHKGRINCNSNTTPIVHLKGDANTLKCLRYRFKKHCTLYTAVSSTWHWTGHNVKHKSAIVTLTYDSEWQRDQFLSQVKIPKTITVSTGFMSI
notes: as for B1
B5: HPV16 E2 D173A mutant (natural protein)
chain: METLCQRLNVCQDKILTHYENDSTDLRDHIDYWKHMRLECAIYYKAREMGFKHINHQVVPTLAVSKNKALQAIELQLTLETIYNSQYSNEKWTLQDVSLEVYLTAPTGCIKKHGYTVEVQFDGDICNTMHYTNWTHIYICEEASVTVVEGQVDYYGLYYVHEGIRTYFVQFKADAEKYSKNKVWEVHAGGQVILCPTSVFSSNEVSSPEIIRQHLANHPAATHTKAVALGTEETQTTIQRPRSEPDTGNPCHTTKLLHRDSVDSAPILTAFNSSHKGRINCNSNTTPIVHLKGDANTLKCLRYRFKKHCTLYTAVSSTWHWTGHNVKHKSAIVTLTYDSEWQRDQFLSQVKIPKTITVSTGFMSI
notes: as for B1
B6: HPV16 E2 E118A mutant (natural protein)
chain: METLCQRLNVCQDKILTHYENDSTDLRDHIDYWKHMRLECAIYYKAREMGFKHINHQVVPTLAVSKNKALQAIELQLTLETIYNSQYSNEKWTLQDVSLEVYLTAPTGCIKKHGYTVAVQFDGDICNTMHYTNWTHIYICEEASVTVVEGQVDYYGLYYVHEGIRTYFVQFKDDAEKYSKNKVWEVHAGGQVILCPTSVFSSNEVSSPEIIRQHLANHPAATHTKAVALGTEETQTTIQRPRSEPDTGNPCHTTKLLHRDSVDSAPILTAFNSSHKGRINCNSNTTPIVHLKGDANTLKCLRYRFKKHCTLYTAVSSTWHWTGHNVKHKSAIVTLTYDSEWQRDQFLSQVKIPKTITVSTGFMSI
notes: as for B1

biological target: T1, His-ChlR1 63-214; experiment: pull-down; His-ChlR1 1-130 or His-ChlR1 63-214 immobilised on nickel resin, incubated with cleared whole-cell lysate of E2-transfected C33a cells for 16 h at 4°C; bound E2 by Western blotting, densitometry against input; settings: one partner purified

Point of comparison: B6, “% E2 bound (in comparison to the E2^WT binding level)” value 107%. Against it:
- B1 — lower, 38.8%
- B2 — lower, 5.43%
- B3 — lower, 45.2%
- B4 — lower, 36.3%
- B5 — lower, 80.5%
